Data set [1] addresses T1, Pot1pC (198-339 V199D) (Schizosaccharomyces pombe, UniProt O13988 198-339, V199D).
T1 sequence: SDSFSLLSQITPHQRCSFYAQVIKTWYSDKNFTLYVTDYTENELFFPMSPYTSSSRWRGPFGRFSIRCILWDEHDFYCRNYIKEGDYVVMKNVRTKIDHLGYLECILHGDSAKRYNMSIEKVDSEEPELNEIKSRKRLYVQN
Briefly: ITC. (Isothermal titration calorimetry measures the heat released or taken up as one component is titrated into another.)

Data set [2] concerns the target T1, Pot1pC (198-339 V199D). Briefly: X-ray crystal structure.

From article PMC3545015 come the findings set out here.

The Kd is the concentration at which binding is half-saturated. Lower therefore signals a tighter complex. The molecule GGTAACGGT (ssDNA) [T4A] had a Kd with Pot1pC (198-339 V199D) [1] of 21 nM. Same read-out and setting: with GGTTACGCT (ssDNA) [G8C] the figure was 22 nM.

Take GGTTAGGGT (ssDNA) [C6G]: the dissociation constant (Kd) in the data set with Pot1pC (198-339 V199D) [1] came out at 6 nM. The molecule GGATACGGT (ssDNA) [T3A] registered a Kd in the data set with Pot1pC (198-339 V199D) [1] of 37 nM.

As for GCTTACGGT (ssDNA) [G2C], the binding result with Pot1pC (198-339 V199D) [2] is “binds”. The molecule GGTTTCGGT (ssDNA) [A5T] gave a Kd with Pot1pC (198-339 V199D) [1] of 63 nM. In the data set with Pot1pC (198-339 V199D) [1], GGTTACGGT (ssDNA) [9mer] had a Kd of 24 nM.
